Laboratory results reported in patent US20090269356.
pKd: −log10 of the molar value.

Biological target: complement C5 (full length) (Homo sapiens) (UniProt P01031)
Assay: filter
Details: dRmY: A,G deoxy; C,U 2'-OMe; dot blot, DPBS

complement C5 (full length) (Homo sapiens), sequence (P01031 whole entry): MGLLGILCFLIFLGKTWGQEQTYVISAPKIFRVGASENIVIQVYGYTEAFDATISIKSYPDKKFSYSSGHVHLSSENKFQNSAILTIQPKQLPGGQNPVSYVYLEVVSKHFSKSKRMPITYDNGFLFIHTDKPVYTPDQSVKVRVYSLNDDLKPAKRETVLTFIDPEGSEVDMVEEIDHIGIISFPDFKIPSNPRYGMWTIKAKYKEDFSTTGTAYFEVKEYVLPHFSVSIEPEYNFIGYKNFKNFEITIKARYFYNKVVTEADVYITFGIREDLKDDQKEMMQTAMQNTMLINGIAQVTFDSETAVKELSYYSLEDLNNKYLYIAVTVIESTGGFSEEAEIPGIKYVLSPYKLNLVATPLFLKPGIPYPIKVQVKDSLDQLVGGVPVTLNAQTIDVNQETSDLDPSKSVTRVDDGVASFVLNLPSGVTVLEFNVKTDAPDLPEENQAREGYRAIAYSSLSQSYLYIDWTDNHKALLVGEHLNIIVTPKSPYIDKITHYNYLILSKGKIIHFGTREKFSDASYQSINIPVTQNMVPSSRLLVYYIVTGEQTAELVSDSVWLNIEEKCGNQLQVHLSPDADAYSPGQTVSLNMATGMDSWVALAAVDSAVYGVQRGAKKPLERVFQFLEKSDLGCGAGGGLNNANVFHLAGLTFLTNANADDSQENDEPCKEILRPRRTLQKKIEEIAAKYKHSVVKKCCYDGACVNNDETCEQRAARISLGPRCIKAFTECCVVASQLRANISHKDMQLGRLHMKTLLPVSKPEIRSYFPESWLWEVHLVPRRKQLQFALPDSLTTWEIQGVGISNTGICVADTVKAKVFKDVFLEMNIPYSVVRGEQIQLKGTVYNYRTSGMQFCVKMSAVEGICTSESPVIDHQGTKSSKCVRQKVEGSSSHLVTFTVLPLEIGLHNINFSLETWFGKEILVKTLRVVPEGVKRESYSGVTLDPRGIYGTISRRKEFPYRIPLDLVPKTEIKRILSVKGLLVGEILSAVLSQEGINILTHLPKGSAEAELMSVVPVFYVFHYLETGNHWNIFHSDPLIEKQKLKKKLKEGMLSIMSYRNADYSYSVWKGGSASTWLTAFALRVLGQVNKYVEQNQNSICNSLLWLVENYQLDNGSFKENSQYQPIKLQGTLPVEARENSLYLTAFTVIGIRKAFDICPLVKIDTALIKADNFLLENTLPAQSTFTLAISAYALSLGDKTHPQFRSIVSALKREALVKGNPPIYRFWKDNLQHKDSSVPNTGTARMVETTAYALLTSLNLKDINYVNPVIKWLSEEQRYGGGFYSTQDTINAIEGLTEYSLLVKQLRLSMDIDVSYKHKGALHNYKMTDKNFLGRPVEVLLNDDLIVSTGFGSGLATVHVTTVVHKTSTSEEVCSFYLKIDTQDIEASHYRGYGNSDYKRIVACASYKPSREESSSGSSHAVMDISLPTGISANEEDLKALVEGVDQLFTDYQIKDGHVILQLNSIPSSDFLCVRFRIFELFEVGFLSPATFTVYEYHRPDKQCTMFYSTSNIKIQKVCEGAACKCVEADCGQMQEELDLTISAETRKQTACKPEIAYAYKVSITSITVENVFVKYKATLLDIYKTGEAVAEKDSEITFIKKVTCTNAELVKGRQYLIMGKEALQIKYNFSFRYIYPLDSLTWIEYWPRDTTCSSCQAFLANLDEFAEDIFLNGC

GGGAGAGGAGAGAACGUUCUACCUUGGUUUGGCNCAGGCAUANAUACGCACGGGUCGAUCGGUUACGACUAGCAU [doped clone SEQ 96]
pKd: 7.08
